Results: article PMC11295067

Experiments:
[1] = molecular target: human Gq heterotrimer (human) (UniProt P50148)
[2] = molecular target: human Gi heterotrimer (human) (UniProt P63096)
Sequence of human Gi heterotrimer (human) (P63096 whole entry, looked up, one chain of several): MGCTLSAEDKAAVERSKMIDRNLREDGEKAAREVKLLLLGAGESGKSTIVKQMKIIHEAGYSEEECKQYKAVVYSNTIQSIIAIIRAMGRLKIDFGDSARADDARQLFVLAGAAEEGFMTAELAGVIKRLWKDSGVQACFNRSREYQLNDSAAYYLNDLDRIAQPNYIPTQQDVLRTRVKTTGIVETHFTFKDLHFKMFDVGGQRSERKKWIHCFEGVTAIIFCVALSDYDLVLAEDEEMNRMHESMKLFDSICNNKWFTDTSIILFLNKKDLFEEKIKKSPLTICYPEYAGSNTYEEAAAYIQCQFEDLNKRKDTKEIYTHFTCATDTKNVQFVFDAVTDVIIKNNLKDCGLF

Sequence of human Gq heterotrimer (human) (P50148 whole entry, looked up, one chain of several): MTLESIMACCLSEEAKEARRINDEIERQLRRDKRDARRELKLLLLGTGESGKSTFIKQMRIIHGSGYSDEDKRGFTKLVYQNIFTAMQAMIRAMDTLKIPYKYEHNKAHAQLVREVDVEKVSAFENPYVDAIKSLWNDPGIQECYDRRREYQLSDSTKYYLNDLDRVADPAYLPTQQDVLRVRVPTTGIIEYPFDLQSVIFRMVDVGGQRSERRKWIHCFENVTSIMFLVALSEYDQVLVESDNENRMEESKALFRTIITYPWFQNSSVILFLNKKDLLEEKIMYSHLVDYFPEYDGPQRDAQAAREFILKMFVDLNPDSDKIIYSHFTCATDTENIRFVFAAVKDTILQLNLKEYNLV

- GTPase-Glo assay: GTP depletion by Gq heterotrimer with JSR1/9-cis retinal, after illumination [1]: 44%
- GTPase-Glo assay: GTP depletion by Gq heterotrimer with JSR1/9-cis retinal, without illumination [1]: 7%
- GTPase-Glo assay: GTP depletion by Gi heterotrimer with JSR1/9-cis retinal, after illumination [2]: 92%
- GTPase-Glo assay: GTP depletion by Gi heterotrimer with JSR1/9-cis retinal, without illumination [2]: 57%
Substance: Jumping Spider Rhodopsin-1 (JSR1) reconstituted with 9-cis retinal (receptor)
